Experimental findings from US5831007 are described below.

Experiment [1] addresses Soluble complex of 125I-IL-12 crosslinked to human IL-12R (human) (UniProt P29460). As to the kind of experiment: immunoprecipitation of the solubilized 125I-IL-12/IL-12R complex by the immobilized antibody; control.
For experiment [2], the target named is Natural human IL-12 receptor on IL-12R positive human cells (PHA-activated PBMC, K6, Kit-225, YT cells) (human). In words: equilibrium binding of 125I-IL-12 to PHA-activated PBMCs, Kit-225 and K6 cells, Scatchard, second of 3 sites.
Experiment [3] has the same target. As to the kind of experiment: steady state 125I-IL-12 binding to PHA-PBMC (5-7 days), Scatchard, first of 3 sites.
Experiment [4] deals with Detergent solubilized IL-12R from extracts of PHA-activated PBMC, Kit-225 or K6 cells (human). In words: steady state binding of 125I-IL-12 to proteins immunoprecipitated by immobilized 2-4E6 from solubilized cell extracts, Scatchard (FIG. 14, K6 cells).
Experiment [5] addresses Natural human IL-12 receptor on IL-12R positive human cells (PHA-activated PBMC, K6, Kit-225, YT cells) (human). In words: steady state 125I-IL-12 binding to Kit-225 cells, Scatchard, second of 3 sites.
Experiment [6] has the same target. In words: steady state 125I-IL-12 binding to YT cells, Scatchard, first of 2 sites.
Experiment [7] has the same target. In words: steady state 125I-IL-12 binding to K6 cells, Scatchard, third of 3 sites.
For experiment [8] the target is unchanged.
The target is the same in experiment [9]. As to the kind of experiment: steady state 125I-IL-12 binding to Kit-225 cells, Scatchard, third of 3 sites.
For experiment [10] the target is unchanged. As to the kind of experiment: equilibrium binding of 125I-IL-12 to PHA-activated PBMCs, Kit-225 and K6 cells, Scatchard, first of 3 sites.
For experiment [11] the target is unchanged. In words: steady state 125I-IL-12 binding to PHA-PBMC (5-7 days), Scatchard, third of 3 sites.
For experiment [12] the target is unchanged. As to the kind of experiment: equilibrium binding of 125I-IL-12 to PHA-activated PBMCs, Kit-225 and K6 cells, Scatchard, third of 3 sites.
For experiment [13] the target is unchanged. In words: steady state 125I-IL-12 binding to K6 cells, Scatchard, first of 3 sites.
Experiment [14] shares this target. In words: steady state 125I-IL-12 binding to K6 cells, Scatchard, second of 3 sites.
The target is the same in experiment [15]. As to the kind of experiment: steady state 125I-IL-12 binding to YT cells, Scatchard, second of 2 sites.
For experiment [16] the target is unchanged. As to the kind of experiment: steady state 125I-IL-12 binding to PHA-PBMC (5-7 days), Scatchard, second of 3 sites.
Experiment [17] has the same target. As to the kind of experiment: steady state 125I-IL-12 binding to Kit-225 cells, Scatchard, first of 3 sites.

Where “and” joins values, the source holds several entries; their conditions need not be identical. Equal values may be shown once.

Recombinant human IL-12 (Interleukin-12), sequence (P29460 23-328): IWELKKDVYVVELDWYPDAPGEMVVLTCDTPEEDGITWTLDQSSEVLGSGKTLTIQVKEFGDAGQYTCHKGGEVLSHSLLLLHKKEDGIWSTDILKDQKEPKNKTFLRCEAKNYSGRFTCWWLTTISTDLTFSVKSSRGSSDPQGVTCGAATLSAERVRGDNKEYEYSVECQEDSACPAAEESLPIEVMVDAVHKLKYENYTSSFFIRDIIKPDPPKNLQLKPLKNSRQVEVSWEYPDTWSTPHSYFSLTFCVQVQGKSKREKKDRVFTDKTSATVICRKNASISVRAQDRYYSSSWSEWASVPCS
Recombinant human IL-12 (Interleukin-12), sequence (chain): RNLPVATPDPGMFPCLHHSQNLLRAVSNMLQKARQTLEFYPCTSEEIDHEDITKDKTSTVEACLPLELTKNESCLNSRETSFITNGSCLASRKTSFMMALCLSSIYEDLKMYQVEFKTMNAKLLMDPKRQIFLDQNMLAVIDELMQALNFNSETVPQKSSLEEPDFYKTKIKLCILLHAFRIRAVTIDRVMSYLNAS

For Control mAb (Table 1) (antibody), the I.P. assay (cpm bound) in experiment [1] was 402 cpm.

For orientation: Kd means the free concentration of one partner at which half of the binding sites on the other are occupied at equilibrium, for simple one-to-one binding. Lower therefore signals tighter binding. As for “Recombinant human IL-12 (Interleukin-12) (from UniProt P29460) (ligand)”, the Kd is 0.05 nM and 0.2 nM in [2]; 0.018 nM in experiment [3]; 0.188 nM in experiment [4]; 0.21 nM in experiment [5]; 0.006 nM in [6]; 2.4 nM in experiment [7]. Further, the Kd was 2.36 nM in experiment [9]; 0.005 nM and 0.02 nM in experiment [10]; 1.8 nM in experiment [11]; 2 nM and 6 nM in [12]; 0.016 nM in experiment [13]; 0.057 nM in [14]. Moreover, the Kd was found to be 0.109 nM in [15], 0.084 nM in [16] and 0.023 nM in experiment [17]. The substance also showed a 3H-TdR incorporation of PHA-activated PBMC in [8] of 38800 cpm.
